We go through one molecule from US20080274110A1 (published 2008).

This test concerns the target T1, β2 microglobulin (human, UniProt P61769 21-119).
T1 construct: The 12 kD band on its own, as probed by Western blotting; also called molecule of approximately 12 KD
Kind of test: Western blotting with the 2D7 antibody. The source says: As a result, a molecule (approximately 12 kD) that precipitates specifically in RPMI8226 and U266 cells was observed (FIG. 3). This molecule was not detected by Western blotting using the 2D7 antibody, but since it is at least reproducibly precipitated by the 2D7 antibody, it was strongly predicted to be the 2D7 antigen itself, or a molecule that co-precipitates with the 2D7 antigen.
(In general: In western blotting, separated proteins are transferred to a membrane and probed.)

T1 sequence (P61769 21-119 limits assumed): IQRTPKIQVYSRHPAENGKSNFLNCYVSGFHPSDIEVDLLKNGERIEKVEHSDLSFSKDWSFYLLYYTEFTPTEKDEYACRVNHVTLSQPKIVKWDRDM

B1: 2D7 antibody (antibody, mouse IgG2b, V domains shown)
VH: QVQLQQSGPELVKPGASVKMSCKASGYTFTDYFIHWVKQRPGQGLEWIGWIFPGDDTTDYNEKFRGKTTLTADKSSSTAYILLSSLTSEDSAMYFCVRSDDFDYWGQGTTLTVSS
VL: QIVLTQSPAIMSASPGEKVTITCSASSSVSYMHWFQQKPGTFPKLWIYSTSNLASGVPTRFSGSGSGTSYSLTISRMEAEDAATYYCQQRTSYPPTFGSGTKLEIK
notes: Whole mouse monoclonal antibody purified on Protein A from ascites of the 2D7 hybridoma (University of Tokushima); Primers for mouse IgG2b constant regions were used to clone its variable regions
For the molecule B1, the binding result is given as “no binding”.
